Experimental findings from patent publication US20190002514A1 (Dana-Farber, published 2019) are described below.

The target of assay [1] is T1, BFL-1ΔC C4S/C19S (human, UniProt Q16548 1-153).
T1 construct: range 1-153; Recombinant, E. coli; made by site-directed mutagenesis; also called His-BFL-1ΔC C4S/C19S; C55-only BFL-1; not shown: N-terminal His tag from the pET19b vector
T1 sequence (looked up): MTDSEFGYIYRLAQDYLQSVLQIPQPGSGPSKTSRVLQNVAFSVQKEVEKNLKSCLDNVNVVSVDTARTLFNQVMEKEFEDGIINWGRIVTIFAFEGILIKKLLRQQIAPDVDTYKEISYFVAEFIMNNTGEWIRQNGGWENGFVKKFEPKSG
The experiment in a line: covalent conjugation, 10:1 peptide:protein, reducing and denaturing gel, Coomassie. The procedure: Processing for gel electrophoresis and Coomassie staining was performed as above.

The target of assay [2] is T2, Bfl-1 (recombinant protein of Examples 1-4) (UniProt Q16548 1-153, limits assumed).
T2 construct: also called 9xHis-tagged Bfl-1
T2 sequence (looked up): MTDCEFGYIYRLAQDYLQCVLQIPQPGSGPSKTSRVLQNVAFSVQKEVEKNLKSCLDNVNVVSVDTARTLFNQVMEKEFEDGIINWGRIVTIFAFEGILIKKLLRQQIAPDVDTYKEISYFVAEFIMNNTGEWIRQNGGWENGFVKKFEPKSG
The experiment in a line: fluorescence polarization: FITC-labelled SAHB, anti-apoptotic protein serially diluted from 1 µM. The procedure: (§1) The solution-state equilibrium binding assay was used to determine binding affinities of the stapled peptides to the anti-apoptotic proteins. Proteins were serially diluted from 1 μM, then combined with FITC-labeled SAHB and polarization measured at 5 min on a microplate reader. We then calculated dissociation constants (KD) by nonlinear regression analysis of dose-response curves.
In general terms: Fluorescence polarisation rises when a labelled molecule tumbles more slowly, as on binding a larger partner.

Assay [3] addresses T3, MCL-1 (recombinant protein of Examples 1-4) (UniProt Q07820 170-327, limits assumed).
T3 construct: also called MCL-I
Described as above. The method, then:
as §1

The next assay deals with T4, BFL-1 C4S/C19S/C55S.
T4 construct: member of m33; m12 without cysteines; also called BFL-1ΔC C4S/C19S/C55S
T4 chain: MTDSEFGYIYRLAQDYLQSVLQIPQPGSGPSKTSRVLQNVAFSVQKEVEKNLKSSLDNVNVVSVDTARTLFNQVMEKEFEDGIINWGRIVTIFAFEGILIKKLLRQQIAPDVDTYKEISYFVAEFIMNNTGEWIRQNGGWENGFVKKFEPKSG
The experiment in a line: biolayer interferometry (Octet RED384): biotin-PEG-NOXA SAHB on super streptavidin tips, BFL-1ΔC construct in solution. The method, then: (§2) Excess streptavidin was quenched by incubation with 2 μg/mL biocytin. The tips were then washed with kinetics buffer and soaked in a serial dilution of BFL-1ΔC for 10 min to measure association rate, followed by a 15 min incubation in kinetics buffer to measure dissociation rate. Dissociation constants were calculated using Octet Data Analysis version 9.0.
Background: BLI is a label-free optical method that tracks binding on a fibre tip over time.

The target of assay [4] is T5, BFL-1ΔC (aa 1-153) (human, UniProt Q16548 1-153).
T5 construct: Recombinant, expressed in E. coli; the recombinant construct's species is not restated; also called wild-type BFL-1ΔC; BFL-1 WT; not shown: N-terminal His tag and vector-derived linker of pET19b
T5 sequence: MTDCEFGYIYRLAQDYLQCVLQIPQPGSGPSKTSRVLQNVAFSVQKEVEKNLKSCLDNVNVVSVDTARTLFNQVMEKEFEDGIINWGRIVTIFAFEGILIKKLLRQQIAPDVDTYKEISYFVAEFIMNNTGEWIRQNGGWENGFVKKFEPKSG
Described as above. The method, then:
as §2

Assay [5] deals with T1, BFL-1ΔC C4S/C19S. Described as above. The procedure: as §2
Assay [6] addresses T5, BFL-1ΔC (aa 1-153). Description: covalent conjugation assay, gel shift.
A further assay has as its target T6, HA-BFL-1ΔC C4S/C19S (human, UniProt Q16548 1-153).
T6 construct: range 1-153; tested in lysates and in intact cells; also called expressed BFL-1; not shown: HA tag
T6 sequence (looked up): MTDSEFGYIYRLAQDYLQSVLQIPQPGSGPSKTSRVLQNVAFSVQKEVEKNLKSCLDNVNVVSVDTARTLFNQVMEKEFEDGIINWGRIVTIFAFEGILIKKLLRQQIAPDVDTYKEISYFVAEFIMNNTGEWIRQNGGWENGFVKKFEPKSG
The experiment in a line: crosslinking in lysates of transfected 293T cells, anti-HA and biotin western analysis. The procedure:
For lysate experiments, cells were trypsinized 24 hours post-transfection, washed with PBS, and lysed by incubation with 1% CHAPS lysis buffer (150 mM NaCl, 50 mM Tris pH 7.4, 100 mM DTT). Protein concentration of the soluble fraction was measured using a BCA kit according to manufacturer's instructions (Thermo Scientific). […] Samples were then boiled in LDS buffer and subjected to western analysis using 1:1000 dilutions of HA (Sigma-Aldrich, #12CA5) and biotin (Abcam, #53494) antibodies. […] After 24 h, cells were trypsinized, washed with PBS, lysed in 1% CHAPS buffer, and the supernatant collected for protein concentration determination by BCA kit. […] The mixtures were then subjected to HA or FLAG (Sigma-Aldrich, F7425) immunoprecipitation, followed by western analysis using 1:1000 dilutions of HA, FLAG, biotin, and BID (Santa Cruz sc-11423) antibodies. […] Cells were harvested and lysed as above, and incubated overnight with anti-HA agarose beads (Pierce). The beads were washed 3 times with lysis buffer, eluted by boiling in LDS buffer, and subjected to western analysis with HA and biotin antibodies.

The target in assay [7] is T7, native BFL-1 (A375P melanoma cells) (human, UniProt Q16548 1-175).
T7 construct: also called native mitochondrial BFL-1
T7 sequence: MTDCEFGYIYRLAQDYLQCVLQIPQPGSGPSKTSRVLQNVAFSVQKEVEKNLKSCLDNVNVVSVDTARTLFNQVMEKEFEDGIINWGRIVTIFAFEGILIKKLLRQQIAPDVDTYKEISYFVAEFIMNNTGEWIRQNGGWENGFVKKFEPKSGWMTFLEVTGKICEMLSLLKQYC
Description: A375P lysates with biotinylated peptides, streptavidin pull-down, BFL-1 western analysis; also biotinylation of purified mitochondria.

Starred links: 1 amine or outer side, 2 acyl side, 3 side chain; linkers in the order of their positions; H or OH if unused. Positions of bridges follow the written chain, without caps; N, C: chain ends. Non-standard residues stand in square brackets, D forms with d. No end group written: not given here. *: point of attachment. Nip(3R) = O=C([C@@H]1CCCN([*:1])C1)[*:2]; S5 = C=CCCC[C@](C)(N)C(=O)O; Acryloyl = C=CC(=O)*

T3 sequence (Q07820 170-327 limits assumed): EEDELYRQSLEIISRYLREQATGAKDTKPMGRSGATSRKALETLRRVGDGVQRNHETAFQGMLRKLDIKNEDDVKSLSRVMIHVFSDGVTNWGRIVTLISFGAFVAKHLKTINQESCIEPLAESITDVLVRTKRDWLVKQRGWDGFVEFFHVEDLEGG

B1: NOXA SAHBA bearing warhead 5 (peptide)
peptide: Acryloyl-PEVESATQLR[S5]FGD[S5]LNFRQKLL
modifications: staple 11-15; also: X1 proline L or D not settled
notes: Member of the NOXA SAHBA warhead panel 1-8
Regarding B1, the binding result in the assay with BFL-1ΔC C4S/C19S [1] is reported as “binds”.

B2: NOXA SAHBA bearing warhead 1 (peptide)
peptide: Acryloyl-[(3S)‑pyrrolidine‑3‑carboxylic acid]EVESATQLR[S5]FGD[S5]LNFRQKLL
modifications: staple 11-15
notes: as for B1
With B2, the binding result with BFL-1ΔC C4S/C19S [1] is listed as “binds”.

B3: BIM SAHBA bearing warhead 8 (peptide)
peptide: Acryloyl-IAQELR[S5]IGD[S5]FNAYYARR
modifications: staple 7-11
notes: Member of the BIM SAHBA warhead panel 1-8
On to B3, for which the binding result with BFL-1ΔC C4S/C19S [1] is listed as “binds”.

B4: NOXA SAHBA (peptide)
peptide: AELEVECATQLR[S5]FGD[S5]LNFRQKLL
modifications: staple 13-17; also: N-terminal PEG-biotin or FITC depending on assay
notes: Stapled NOXA BH3 (aa 19-43) with native C25; also called WT NOXA SAHB; wild-type NOXA SAHBA
For orientation: EC50 (read off the curve) means the concentration at which the effect is half-maximal. One may read the Kd as the equilibrium constant for the complex coming apart. Take B4: the “EC50 (read off the curve)” value in assay [2] was roughly 100 nM; in assay [3] it was roughly 200 nM. Also, the Kd with BFL-1 C4S/C19S/C55S was found to be 118 nM; with BFL-1ΔC (aa 1-153) [4] it was 122 nM; in the assay with BFL-1ΔC C4S/C19S [5], 165 nM.

B5: NOXA SAHBA C25S (peptide)
peptide: AELEVESATQLR[S5]FGD[S5]LNFRQKLL
modifications: staple 13-17; also: N-terminal PEG-biotin or FITC depending on assay
notes: Stapled NOXA BH3 with C25S; also called NOXA C25S SAHB; C25S mutant peptide
Turning to B5, the results for the Kd with BFL-1 C4S/C19S/C55S, with BFL-1ΔC (aa 1-153) [4] and with BFL-1ΔC C4S/C19S [5] were 58.2 nM, 46.6 nM and 47.2 nM, respectively.

In the case of AELEVECATQLR[S5]YGD[S5]LNFRQKLL (staple 13-17; also: FITC-labelled for FP assay) [NOXA SAHBA F32Y], in assay [2], the “EC50 (read off the curve)” value was roughly 200 nM. The binding result in assay [3] is “no binding (tested: 1e-6 M)”.

B6: BIM SAHBA bearing warhead 1 (peptide)
peptide: [(3S)‑1‑acryloylpyrrolidine‑3‑carboxylic acid]IAQELR[S5]IGD[S5]FNAYYARR
modifications: staple 8-12
notes: as for B3
Turning to B6, the binding result in the assay with BFL-1ΔC C4S/C19S [1] was “binds”.

B7: BIM SAHBA-3 (peptide)
peptide: [Nip(3R)](Acryloyl)IAQELR[S5]IGD[S5]FNAYYARR
modifications: staple 8-12
notes: Warhead-bearing BIM SAHBA (aa 147-166); also called BIM SAHBA-WH with warhead 3; biotinylated BIM SAHBA-3
Consider B7, for which the binding result (with BFL-1ΔC (aa 1-153) [6]; with BFL-1ΔC C4S/C19S [1]; with HA-BFL-1ΔC C4S/C19S; in assay [7]) was “binds” each time.
